Results published in patent US20060234343A1 (published 2006).

Target: T1, EGFR501Fcflag (ErbB1501.Fc fusion protein homodimer) (human, UniProt P00533 25-525)
T1 construct: Captured from 293T supernatant on protein G coated wells; also called truncated form of the extracellular domain of the EGF receptor, expressed as an Fc fusion homodimer; not shown: spacer peptide N-terminal of the Fc; human IgG1 Fc region (from a genomic fragment)
Assay: Eu-EGF displacement by unlabelled EGF from the Fc fusion homodimer captured on protein G; the reference value is from the literature
Method: Ligand binding assays. The wells of a 96-well Lumitrac 600 plate (Greiner) were coated with protein G (2 ug/ml in 10 mM sodium citrate buffer, pH 9.6; Sigma). […] After incubation at room temperature, wells were aspirated, washed in TBS plus 0.05% Tween-20, and Enhancement Solution (Perkin-Elmer) added to each well for 20 minutes.

fold higher affinity than that reported for the full-length ErbB1 ectodomain-Fc fusion protein: 10 fold
B1: EGF (species not stated) (ligand)
chain: NSYPGCPSSYDGYCLNGGVCMHIESLDSYTCNCVIGYSGDRCQTRDLRWWELR
modifications: In the FIG. 8 assay the trace is EGF mono-labelled with a europium chelate (Wallac); site not stated. The EGF in the ultracentrifuge is unlabelled.
notes: Kept apart from hEGF and mEGF because these experiments say only EGF; the two experiments may have used different EGF; also called unlabelled EGF; Eu-EGF (Wallac)
